In patent US20210207126A1 (ADAGENE, published 2021):

T1: Recombinant human CTLA4-Fc (human, UniProt P16410 36-161, limits assumed)
T1 construct: Coated on the ELISA plate at 1 ug/mL; also called its antigen; not shown: Fc part
T1 sequence (looked up): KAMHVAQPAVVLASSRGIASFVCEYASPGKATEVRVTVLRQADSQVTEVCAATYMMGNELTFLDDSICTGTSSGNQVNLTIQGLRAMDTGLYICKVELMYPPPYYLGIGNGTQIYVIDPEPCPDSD


Experiments:
[1] = target: T2, human CD137 displayed on yeast cells (human, UniProt Q07011 24-186, limits assumed); experiment: flow cytometry on yeast cells displaying human CD137, PE anti-human Fc (column head prints EC50 over KD (nM))
T2 construct: Yeast cells displaying human CD137 on their surface; also called human CD137 on the cell surface
Method: (§1) The masking efficiency was then measured through flow cytometry. Briefly, yeast cells displaying human CD137 on their surface washed twice with PBSA buffer, and 50 μL (1×10\hat{ }6) cells were dispensed into each well of a 96 well plate. Cells were then incubated with 3-fold serial dilutions of antibodies for 1 hour on ice, washed once with PBSA buffer, and then incubated with 100 μL of PE conjugated mouse anti-human Fc (1 μg/ml) for 30 minutes on ice. The cells were then washed once prior to analysis by flow cytometry (Beckman® CytoFlex).

[2] = target: T2, human CD137 displayed on yeast cells; experiment: flow cytometry on yeast cells displaying human CD137, PE anti-human Fc
Method: as §1

[3] = target: T1, Recombinant human CTLA4-Fc; experiment: ELISA on plate-coated recombinant human CTLA4-Fc, before protease cleavage, third block of Table 6 (set of FIG. 7C)
[4] = target: T1, Recombinant human CTLA4-Fc; experiment: ELISA on plate-coated recombinant human CTLA4-Fc as in Example 3 (FIG. 24A)
Method: (§2) Recombinant human CTLA4-Fc was diluted to 1 μg/mL in PBS and coated on a Maxisorp plate at 4° C. overnight. Plates were blocked with PBS supplemented with 3% non-fat milk at 37° C. for 1 hour. After washing, 100 μL of 3-fold serial dilutions of antibodies were added to each well. After incubation at 37° C. for 1 hour, plates were washed four times, and 100 μL HRP conjugated anti-human IgG (Fab specific) (1:6000 dilution) was added to each well. Plates were incubated at 37° C. for 1 hour, washed four times, and then 50 μL TMB substrate solution was added to each well, and the plate was incubated at room temperature. Absorbance at 450 nm was measured after the reactions were stopped with 50 μL H₂SO₄ per well. The EC₅₀ was evaluated by fitting the ELISA data using the asymmetrical sigmoidal (five-parameter logistic equation) model of GraphPad Prism 6 software.

[5] = target: T1, Recombinant human CTLA4-Fc; experiment: ELISA on plate-coated recombinant human CTLA4-Fc, before protease cleavage, data batch 2
Method: as §2

[6] = target: T1, Recombinant human CTLA4-Fc; experiment: ELISA on plate-coated recombinant human CTLA4-Fc, before protease cleavage, data batch 1
Method: as §2

Row | Kd [1] [nM] | masking efficiency (against parental TY21242) [2] [fold] | Binder | other results
1 | 10.8 | 38.3 | TY22591 (antibody, V domains shown, Full IgG4 from mammalian cells; peptide fused to the N-terminus of the light chain of TY21242) VH: EVQLVESGGGLVQPGGSLRLSCAASGFSLSTGGVGVGWIRQAPGKGLEWLALIDWADDKYYSPSLKSRLTISRDNSKNTLYLQLNSLRAEDTAVYYCARGGSDTVIGDWFAYWGQGTLVTVSS VL: EVGSYSSTHAHCHHSPANCISSGRSAGGGGSPLGLAGSGGSDIQLTQSPSSLSASVGDRVTITCRASQSIGSYLAWYQQKPGKAPKLLIYDASNLETGVPSRFSGSGSGTDFTLTISSLQPEDFATYYCQQGYYLWTFGQGTKVEIK | 
2 | 8.61 | 30.5 | TY22598 (antibody, V domains shown, Full IgG4 from mammalian cells; peptide fused to the N-terminus of the light chain of TY21242) VH: EVQLVESGGGLVQPGGSLRLSCAASGFSLSTGGVGVGWIRQAPGKGLEWLALIDWADDKYYSPSLKSRLTISRDNSKNTLYLQLNSLRAEDTAVYYCARGGSDTVIGDWFAYWGQGTLVTVSS VL: EVGSYSNNFASCLWRHRSCADSGRSAGGGGSPLGLAGSGGSDIQLTQSPSSLSASVGDRVTITCRASQSIGSYLAWYQQKPGKAPKLLIYDASNLETGVPSRFSGSGSGTDFTLTISSLQPEDFATYYCQQGYYLWTFGQGTKVEIK | 
3 | 107 | 379 | TY22595 (antibody, V domains shown, Full IgG4 from mammalian cells; peptide fused to the N-terminus of the light chain of TY21242) VH: EVQLVESGGGLVQPGGSLRLSCAASGFSLSTGGVGVGWIRQAPGKGLEWLALIDWADDKYYSPSLKSRLTISRDNSKNTLYLQLNSLRAEDTAVYYCARGGSDTVIGDWFAYWGQGTLVTVSS VL: EVGSYNDYNYHCKWRPSRCHNSGRSAGGGGSPLGLAGSGGSDIQLTQSPSSLSASVGDRVTITCRASQSIGSYLAWYQQKPGKAPKLLIYDASNLETGVPSRFSGSGSGTDFTLTISSLQPEDFATYYCQQGYYLWTFGQGTKVEIK | 
4 | 98.1 | 348 | TY22599 (antibody, V domains shown, Full IgG4 from mammalian cells; peptide fused to the N-terminus of the light chain of TY21242) VH: EVQLVESGGGLVQPGGSLRLSCAASGFSLSTGGVGVGWIRQAPGKGLEWLALIDWADDKYYSPSLKSRLTISRDNSKNTLYLQLNSLRAEDTAVYYCARGGSDTVIGDWFAYWGQGTLVTVSS VL: EVGSYTDNYDYCPRLRRKCYHSGRSAGGGGSPLGLAGSGGSDIQLTQSPSSLSASVGDRVTITCRASQSIGSYLAWYQQKPGKAPKLLIYDASNLETGVPSRFSGSGSGTDFTLTISSLQPEDFATYYCQQGYYLWTFGQGTKVEIK | 
5 | 23.6 | 83.7 | TY22594 (antibody, V domains shown, Full IgG4 from mammalian cells; peptide fused to the N-terminus of the light chain of TY21242) VH: EVQLVESGGGLVQPGGSLRLSCAASGFSLSTGGVGVGWIRQAPGKGLEWLALIDWADDKYYSPSLKSRLTISRDNSKNTLYLQLNSLRAEDTAVYYCARGGSDTVIGDWFAYWGQGTLVTVSS VL: EVGSYDTDYDFCPILRHRCDSSGRSAGGGGSPLGLAGSGGSDIQLTQSPSSLSASVGDRVTITCRASQSIGSYLAWYQQKPGKAPKLLIYDASNLETGVPSRFSGSGSGTDFTLTISSLQPEDFATYYCQQGYYLWTFGQGTKVEIK | 

Continued, binder first:

Row | Binder | Kd [1] [nM] | masking efficiency (against parental TY21242) [2] [fold] | other results
6 | TY21242 (antibody, V domains shown, also called parental antibody TY21242; parental CD137 antibody) VH: EVQLVESGGGLVQPGGSLRLSCAASGFSLSTGGVGVGWIRQAPGKGLEWLALIDWADDKYYSPSLKSRLTISRDNSKNTLYLQLNSLRAEDTAVYYCARGGSDTVIGDWFAYWGQGTLVTVSS VL: DIQLTQSPSSLSASVGDRVTITCRASQSIGSYLAWYQQKPGKAPKLLIYDASNLETGVPSRFSGSGSGTDFTLTISSLQPEDFATYYCQQGYYLWTFGQGTKVEIK | 0.28 | 1 | 
7 | TY22596 (antibody, V domains shown, Full IgG4 from mammalian cells; peptide fused to the N-terminus of the light chain of TY21242) VH: EVQLVESGGGLVQPGGSLRLSCAASGFSLSTGGVGVGWIRQAPGKGLEWLALIDWADDKYYSPSLKSRLTISRDNSKNTLYLQLNSLRAEDTAVYYCARGGSDTVIGDWFAYWGQGTLVTVSS VL: EVGSYYHDYDDCRVLPRRCFNSGRSAGGGGSPLGLAGSGGSDIQLTQSPSSLSASVGDRVTITCRASQSIGSYLAWYQQKPGKAPKLLIYDASNLETGVPSRFSGSGSGTDFTLTISSLQPEDFATYYCQQGYYLWTFGQGTKVEIK | 5.86 | 20.8 | 
8 | TY22563 (antibody, V domains shown, IgG1; derived from B13192 to remove a potential glycosylation site) VH: EVQLVESGGGLVQPGGSLRLSCAASGYSISSGYHWSWIRQAPGKGLEWLARIDWDDDKYYSTSLKSRLTISRDNSKNTLYLQLNSLRAEDTAVYYCARSYVYFDYWGQGTLVTVSS VL: EVGSYYSAYPACDSHYPYCQSSGRSAGGGGSPLGLAGSGGSDIQLTQSPSSLSASVGDRVTITCRASQSVRGRFLAWYQQKPGKAPKLLIYDASNRATGIPSRFSGSGSGTDFTLTISSLQPEDFATYYCQQSSSWPPTFGQGTKVEIKR |  |  | masking efficiency (EC50 / EC50 of parental TY21580) [3]: 144 fold
9 | TY22775 (antibody, V domains shown, TY22402 with the masking peptide shortened to 16 residues; expressed in mammalian cells; isotype not restated (parent construct IgG1)) VH: EVQLVESGGGLVQPGGSLRLSCAASGYSISSGYHWSWIRQAPGKGLEWLARIDWDDDKYYSTSLKSRLTISRDNSKNTLYLQLNSLRAEDTAVYYCARSYVYFDYWGQGTLVTVSS VL: EVGHSDCDAFYPYCDSSGRSAGGGGTPLGLAGSGGSDIQLTQSPSSLSASVGDRVTITCRASQSVRGRFLAWYQQKPGKAPKLLIYDASNRATGIPSRFSGSGSGTDFTLTISSLQPEDFATYYCQQSSSWPPTFGQGTKVEIKR |  |  | masking efficiency (EC50 / EC50 of parental TY21580) [4]: 168 fold
10 | TY22565 (antibody, V domains shown, IgG1; derived from B13197 to remove a potential glycosylation site) VH: EVQLVESGGGLVQPGGSLRLSCAASGYSISSGYHWSWIRQAPGKGLEWLARIDWDDDKYYSTSLKSRLTISRDNSKNTLYLQLNSLRAEDTAVYYCARSYVYFDYWGQGTLVTVSS VL: EVGSYPQPSSDCVPYYYACAYSGRSAGGGGSPLGLAGSGGSDIQLTQSPSSLSASVGDRVTITCRASQSVRGRFLAWYQQKPGKAPKLLIYDASNRATGIPSRFSGSGSGTDFTLTISSLQPEDFATYYCQQSSSWPPTFGQGTKVEIKR |  |  | masking efficiency (EC50 / EC50 of parental TY21580) [3]: 632 fold
11 | TY22566 (antibody, V domains shown, IgG1; derived from B13197 to remove a potential glycosylation site) VH: EVQLVESGGGLVQPGGSLRLSCAASGYSISSGYHWSWIRQAPGKGLEWLARIDWDDDKYYSTSLKSRLTISRDNSKNTLYLQLNSLRAEDTAVYYCARSYVYFDYWGQGTLVTVSS VL: EVGSYPNPASDCVPYYYACAYSGRSAGGGGSPLGLAGSGGSDIQLTQSPSSLSASVGDRVTITCRASQSVRGRFLAWYQQKPGKAPKLLIYDASNRATGIPSRFSGSGSGTDFTLTISSLQPEDFATYYCQQSSSWPPTFGQGTKVEIKR |  |  | masking efficiency (EC50 / EC50 of parental TY21580) [3]: 489 fold
12 | TY22776 (antibody, V domains shown, TY22404 with the masking peptide shortened to 16 residues; expressed in mammalian cells; isotype not restated (parent construct IgG1)) VH: EVQLVESGGGLVQPGGSLRLSCAASGYSISSGYHWSWIRQAPGKGLEWLARIDWDDDKYYSTSLKSRLTISRDNSKNTLYLQLNSLRAEDTAVYYCARSYVYFDYWGQGTLVTVSS VL: EVGSSDCVPYYYACAYSGRSAGGGGTPLGLAGSGGSDIQLTQSPSSLSASVGDRVTITCRASQSVRGRFLAWYQQKPGKAPKLLIYDASNRATGIPSRFSGSGSGTDFTLTISSLQPEDFATYYCQQSSSWPPTFGQGTKVEIKR |  |  | masking efficiency (EC50 / EC50 of parental TY21580) [4]: 296 fold
13 | TY22401 (antibody, V domains shown, IgG1 from HEK293F cells; masking and cleavage peptide fused to the N-terminus of the light chain of TY21580; also called masking peptide B13189) VH: EVQLVESGGGLVQPGGSLRLSCAASGYSISSGYHWSWIRQAPGKGLEWLARIDWDDDKYYSTSLKSRLTISRDNSKNTLYLQLNSLRAEDTAVYYCARSYVYFDYWGQGTLVTVSS VL: EVGSYNFVADSCPDHPYPCSASGRSAGGGGSPLGLAGSGGSDIQLTQSPSSLSASVGDRVTITCRASQSVRGRFLAWYQQKPGKAPKLLIYDASNRATGIPSRFSGSGSGTDFTLTISSLQPEDFATYYCQQSSSWPPTFGQGTKVEIKR |  |  | masking efficiency (EC50 / EC50 of parental TY21580) [5]: 48 fold; masking efficiency (EC50 / EC50 of parental TY21580) [6]: 110 fold
14 | TY22564 (antibody, V domains shown, IgG1; derived from B13192 to remove a potential glycosylation site) VH: EVQLVESGGGLVQPGGSLRLSCAASGYSISSGYHWSWIRQAPGKGLEWLARIDWDDDKYYSTSLKSRLTISRDNSKNTLYLQLNSLRAEDTAVYYCARSYVYFDYWGQGTLVTVSS VL: EVGSYYSAYPACDSHYPYCNSAGRSAGGGGSPLGLAGSGGSDIQLTQSPSSLSASVGDRVTITCRASQSVRGRFLAWYQQKPGKAPKLLIYDASNRATGIPSRFSGSGSGTDFTLTISSLQPEDFATYYCQQSSSWPPTFGQGTKVEIKR |  |  | masking efficiency (EC50 / EC50 of parental TY21580) [3]: 117 fold
